Test results as given in patent publication US20170306033A1 (Amgen, published 2017).
Read-outs that look alike come from different tables or passages of the source.

T1: human PAC1 receptor (human, UniProt P41586 21-468)
T1 sequence: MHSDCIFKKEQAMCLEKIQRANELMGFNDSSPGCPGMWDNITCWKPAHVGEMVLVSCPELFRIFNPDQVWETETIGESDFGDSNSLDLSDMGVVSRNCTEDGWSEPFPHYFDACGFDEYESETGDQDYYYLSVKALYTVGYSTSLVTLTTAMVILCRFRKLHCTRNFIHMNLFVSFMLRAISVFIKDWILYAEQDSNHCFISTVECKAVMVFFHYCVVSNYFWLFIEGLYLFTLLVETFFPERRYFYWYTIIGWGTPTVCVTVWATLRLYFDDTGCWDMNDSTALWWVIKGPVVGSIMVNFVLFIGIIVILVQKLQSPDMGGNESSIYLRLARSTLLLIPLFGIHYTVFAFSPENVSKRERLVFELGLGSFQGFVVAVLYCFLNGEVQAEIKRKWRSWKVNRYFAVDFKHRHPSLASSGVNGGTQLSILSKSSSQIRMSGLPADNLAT


Columns and labels:
Test in all cases: cell-based or functional assay
[1] = target: T2, human CGRP receptor (human, UniProt Q16602 23-461; O60894 27-148)
T2 sequence (Q16602 23-461 limits assumed, chain 1 of 2): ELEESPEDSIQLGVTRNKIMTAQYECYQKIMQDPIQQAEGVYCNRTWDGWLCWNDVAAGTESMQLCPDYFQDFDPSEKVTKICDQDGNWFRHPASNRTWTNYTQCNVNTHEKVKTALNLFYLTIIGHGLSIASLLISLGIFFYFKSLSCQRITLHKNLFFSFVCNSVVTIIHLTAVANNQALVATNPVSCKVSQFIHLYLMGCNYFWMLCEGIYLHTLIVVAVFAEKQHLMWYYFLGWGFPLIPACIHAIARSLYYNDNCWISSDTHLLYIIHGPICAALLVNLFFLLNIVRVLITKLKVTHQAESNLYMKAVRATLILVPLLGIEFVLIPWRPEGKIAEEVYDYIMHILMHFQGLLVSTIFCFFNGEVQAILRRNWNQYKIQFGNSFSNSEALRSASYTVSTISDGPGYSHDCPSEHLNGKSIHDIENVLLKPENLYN
T2 sequence (O60894 27-148 limits assumed, chain 2 of 2): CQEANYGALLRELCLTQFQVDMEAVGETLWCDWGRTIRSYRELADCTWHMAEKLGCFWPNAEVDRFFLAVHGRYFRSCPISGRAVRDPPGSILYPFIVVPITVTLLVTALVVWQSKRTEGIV

[2] = target: T1, human PAC1 receptor
[3] = target: T2, human CGRP receptor; remark: listed apart in the source
[4] = target: T1, human PAC1 receptor; remark: listed apart in the source

Binder | Human CGRP Receptor IC50 [1] | Human PAC1 Receptor IC50 [2] | Human CGRP Receptor IC50 [3] | Human PAC1 Receptor IC50 [4]
iPS:386717 (bispecific antibody, human IgG1, lambda, N297G) light: QSVLTQPPSVSAAPGQKVTISCSGSSSNIGNNYVSWYQQLPGTAPKLLIYDNNKRPSGIPDRFSGSKSGTSTTLGITGLQTGDEADYYCGTWDSRLSAVVFGGGTKLTVLGQPKANPTVTLFPPSSEELQANKATLVCLISDFYPGAVTVAWKADGSPVKAGVETTKPSKQSNNKYAASSYLSLTPEQWKSHRSYSCQVTHEGSTVEKTVAPTECS heavy: not shown |  |  | 0.33 nM | 580 nM
iPS:386719 (bispecific antibody, human IgG1, lambda, N297G) light: QSVLTQPPSVSAAPGQKVTISCSGSSSNIGNNYVSWYQQLPGTAPKLLIYDNNKRPSGIPDRFSGSKSGTSATLGITGLQTGDEADYYCGTWDSRLSAVVFGGGTKLTVLGQPKANPTVTLFPPSSEELQANKATLVCLISDFYPGAVTVAWKADGSPVKAGVETTKPSKQSNNKYAASSYLSLTPEQWKSHRSYSCQVTHEGSTVEKTVAPTECS heavy: not shown |  |  | 0.41 nM | 940 nM

The remaining lines, values ahead:

Human CGRP Receptor IC50 [1] | Human PAC1 Receptor IC50 [2] | Human CGRP Receptor IC50 [3] | Human PAC1 Receptor IC50 [4] | Binder
20.4 nM | 4.78 nM |  |  | iPS:392475 (bispecific antibody, human IgG1, kappa, lambda, N297G) light: DIQLTQSPSFLSASVGDRVTITCRASQSIGRSLHWYQQKPGKAPKLLIKYASQSLSGVPSRFSGSGSGTEFTLTISSLQPEDFATYYCHQSSRLPFTFGPGTKVDIKRTVAAPSVFIFPPSDEQLKSGTASVVCLLNNFYPREAKVQWKVDNALQSGNSQESVTEQDSKDSTYSLESTLTLSKADYEKHKVYACEVTHQGLSSPVTKSFNRGEC heavy: not shown QVQLVESGGGVVQPGRSLRLSCAASGFTFSSFGMHWVRQAPGKGLEWVAVISFDGSIKYSVDSVKGRFTISRDNSKNTLFLQMNSLRAEDTAVYYCARDRLNYYESSGYYHYKYYGMAVWGQGTTVTVSSGQPKANPTVTLFPPSSEELQANKATLVCLISDFYPGAVTVAWKADGSPVKAGVETTKPSKQSNNKYAAESYLSLTPEQWKSHRSYSCQVTHEGSTVEKTVAPTECS
60.2 nM | 2.7 nM |  |  | iPS:392513 (bispecific antibody, human IgG1, kappa, lambda, N297G) light: DIQLTQSPSFLSASVGDRVTITCRASQSIGRSLHWYQQKPGKAPKLLIKYASQSLSGVPSRFSGSGSGTEFTLTISSLQPEDFATYYCHQSSRLPFTFGPGTKVDIKRTVAAPSVFIFPPSDEQLKSGTASVVCLLNNFYPREAKVQWKVDNALQSGNSQESVTEQDSKDSTYSLESTLTLSKADYEKHKVYACEVTHQGLSSPVTKSFNRGEC heavy: not shown QVQLVESGGGVVQPGRSLRLSCAASGFTFSSFGMHWVRQAPGKGLEWVAVISFDGSIKYSVDSVKGRFTISRDNSKNTLFLQMNSLRAEDTAVYYCARDRLNYYDSSGYYHYKYYGMAVWGQGTTVTVSSGQPKANPTVTLFPPSSEELQANKATLVCLISDFYPGAVTVAWKADGSPVKAGVETTKPSKQSNNKYAAESYLSLTPEQWKSHRSYSCQVTHEGSTVEKTVAPTECS
 |  | 0.27 nM | 248 nM | iPS:386723 (bispecific antibody, human IgG1, lambda, N297G) light: QSVLTQPPSVSAAPGQKVTISCSGSSSNIGNNYVSWYQQLPGTAPKLLIYDNNKRPSGIPDRFSGSKSGTSATLGITGLQTGDEADYYCGTWDSRLSAVVFGGGTKLTVLGQPKANPTVTLFPPSSEELQANKATLVCLISDFYPGAVTVAWKADGSPVKAGVETTKPSKQSNNKYAASSYLSLTPEQWKSHRSYSCQVTHEGSTVEKTVAPTECS heavy: not shown
 |  | 0.22 nM | 197 nM | iPS:386721 (bispecific antibody, human IgG1, lambda, N297G) light: QSVLTQPPSVSAAPGQKVTISCSGSSSNIGNNYVSWYQQLPGTAPKLLIYDNNKRPSGIPDRFSGSKSGTSATLAITGLQTGDEADYYCGTWDSRLSAVVFGGGTKLTVLGQPKANPTVTLFPPSSEELQANKATLVCLISDFYPGAVTVAWKADGSPVKAGVETTKPSKQSNNKYAASSYLSLTPEQWKSHRSYSCQVTHEGSTVEKTVAPTECS heavy: not shown
